Experiment [1] has as its target MUC16 (CA125), native, membrane-bound on cancer cells (human) (UniProt Q8WXI7). Put plainly: flow cytometry on OVCAR3 cells, anti-FLAG detection.
For experiment [2], the target named is MUC16-targeted mesothelin-TR3 fusion protein (Meso-TR3) (human). Put plainly: cell-based or functional assay.
The target of experiment [3] is MUC16 (CA125), native, membrane-bound on cancer cells (human) (UniProt Q8WXI7). Put plainly: cell-based or functional assay.

MUC16-targeted mesothelin-TR3 fusion protein (Meso-TR3), sequence (chain): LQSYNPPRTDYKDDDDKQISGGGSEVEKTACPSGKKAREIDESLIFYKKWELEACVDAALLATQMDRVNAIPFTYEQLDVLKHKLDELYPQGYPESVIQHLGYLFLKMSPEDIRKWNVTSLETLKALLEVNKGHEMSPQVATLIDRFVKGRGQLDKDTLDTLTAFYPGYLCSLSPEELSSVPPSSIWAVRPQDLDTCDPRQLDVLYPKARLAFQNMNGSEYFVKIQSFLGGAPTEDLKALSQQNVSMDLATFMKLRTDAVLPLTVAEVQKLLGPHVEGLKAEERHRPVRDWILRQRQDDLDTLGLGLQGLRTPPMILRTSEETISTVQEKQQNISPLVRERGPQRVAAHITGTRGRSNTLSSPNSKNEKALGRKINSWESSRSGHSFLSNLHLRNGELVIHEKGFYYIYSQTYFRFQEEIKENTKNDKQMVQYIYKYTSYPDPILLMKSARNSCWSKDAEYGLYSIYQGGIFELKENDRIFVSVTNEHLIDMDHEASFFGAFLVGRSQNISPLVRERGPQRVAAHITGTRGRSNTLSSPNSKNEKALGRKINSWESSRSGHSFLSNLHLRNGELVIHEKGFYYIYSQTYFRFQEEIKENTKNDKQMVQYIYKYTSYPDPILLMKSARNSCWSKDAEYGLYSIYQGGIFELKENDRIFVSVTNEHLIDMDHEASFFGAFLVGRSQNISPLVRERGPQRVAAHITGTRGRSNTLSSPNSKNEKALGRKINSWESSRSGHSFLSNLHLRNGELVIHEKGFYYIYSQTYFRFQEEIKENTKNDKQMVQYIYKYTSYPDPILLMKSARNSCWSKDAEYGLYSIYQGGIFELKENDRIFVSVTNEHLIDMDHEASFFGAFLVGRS
MUC16-targeted mesothelin-TR3 fusion protein (Meso-TR3) (human), sequence (chain, as listed by the source limits assumed, form in doubt): as the sequence (chain) above

“soluble, FLAG-tagged human mesothelin (secreted form, GPI signal sequence deleted) (from UniProt Q13421 37-598) (ligand)” displayed a percent of cells positive for the FLAG epitope tag in experiment [1] of 100%.

“soluble death receptor 5 (DR5-Fc) (from UniProt O14763 56-182) (Fc fusion)”: in experiment [2], the cell death of OVCAR3 cells by Meso-TR3 at the highest DR5-Fc concentration is < 10% and the cell death of OVCAR3 cells by Meso-TR3 in the absence of DR5-Fc came to 90%.

Consider “MUC16-targeted mesothelin-TR3 fusion protein (Meso-TR3)”, for which, in experiment [3], the cell death of MUC16-positive OVCAR3 cells at the highest drug dose is 65%; the cell killing of OVCAR3 cells by Meso-TR3, highest dose of soluble mesothelin competitor was determined as 40%; the cell killing of OVCAR3 cells by Meso-TR3, no competitor is 80%; the fraction of MUC16-positive HeLa cells after Meso-TR3 treatment (flow cytometry) came to 54%. The fraction of MUC16-positive HeLa cells before Meso-TR3 treatment (flow cytometry) in experiment [3] amounted to 80%.

These data come from patent US20180030109A1.
